From PMC9316817, “Brain Delivery of IGF1R5, a Single-Domain Antibody Targeting Insulin-like Growth Factor-1 Receptor” (Pharmaceutics, 2022)

How the values were obtained:
Human IGF1R ectodomain [1] = target: Human IGF1R ectodomain (UniProt P08069); experiment: SPR; acidic pH: HBS-EP MES buffer pH 5.6, 37 °C; IGF1R ectodomains amine coupled on CM5 chips; VHHs in flow, 0.25-10 nM (IGF1R5), 1-50 nM (IGF1R5-H2); 1:1 binding model
[2] = target: mouse IGF1R ectodomain (mouse) (UniProt Q60751); experiment: as above
Sequence of mouse IGF1R ectodomain (mouse) (Q60751 742-936): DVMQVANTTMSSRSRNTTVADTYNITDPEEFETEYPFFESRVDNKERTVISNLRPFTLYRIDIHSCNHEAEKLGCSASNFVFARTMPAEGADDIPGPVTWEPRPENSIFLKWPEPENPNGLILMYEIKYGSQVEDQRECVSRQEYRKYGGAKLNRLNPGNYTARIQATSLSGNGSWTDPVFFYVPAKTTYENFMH

Human IGF1R ectodomain [3] = target: Human IGF1R ectodomain (UniProt P08069); experiment: SPR; Biacore 3000, multi-cycle kinetics; IGF1R ectodomains amine coupled on CM5 chips (about 1500-2000 RU); VHHs in flow at 20 µL/min, 300 s association, 300 s dissociation; 0.25-10 nM (IGF1R5), 1-25 nM (IGF1R5-H2); HBS-EP pH 7.4, 25 °C; 1:1 binding model
[4] = target: mouse IGF1R ectodomain (mouse) (UniProt Q60751); experiment: as above
[5] = target: T1, rhesus IGF1R ectodomain (aa31-932) (Macaca mulatta, UniProt I2CWY3); experiment: SPR; Biacore T200, single-cycle kinetics (rhesus IGF1R); IGF1R ectodomain amine coupled on CM5 chip; VHHs in flow at 40 µL/min, 180 s association, 600 s dissociation; 0.25-10 nM (IGF1R5), 1-25 nM (IGF1R5-H2); HBS-EP pH 7.4, 25 °C; 1:1 binding model; details: both partners purified
T1 construct: insulin-like growth factor-1 receptor, rhesus, ectodomain, aa31-932; source: NRC Montreal
T1 sequence (I2CWY3 entry or part of it): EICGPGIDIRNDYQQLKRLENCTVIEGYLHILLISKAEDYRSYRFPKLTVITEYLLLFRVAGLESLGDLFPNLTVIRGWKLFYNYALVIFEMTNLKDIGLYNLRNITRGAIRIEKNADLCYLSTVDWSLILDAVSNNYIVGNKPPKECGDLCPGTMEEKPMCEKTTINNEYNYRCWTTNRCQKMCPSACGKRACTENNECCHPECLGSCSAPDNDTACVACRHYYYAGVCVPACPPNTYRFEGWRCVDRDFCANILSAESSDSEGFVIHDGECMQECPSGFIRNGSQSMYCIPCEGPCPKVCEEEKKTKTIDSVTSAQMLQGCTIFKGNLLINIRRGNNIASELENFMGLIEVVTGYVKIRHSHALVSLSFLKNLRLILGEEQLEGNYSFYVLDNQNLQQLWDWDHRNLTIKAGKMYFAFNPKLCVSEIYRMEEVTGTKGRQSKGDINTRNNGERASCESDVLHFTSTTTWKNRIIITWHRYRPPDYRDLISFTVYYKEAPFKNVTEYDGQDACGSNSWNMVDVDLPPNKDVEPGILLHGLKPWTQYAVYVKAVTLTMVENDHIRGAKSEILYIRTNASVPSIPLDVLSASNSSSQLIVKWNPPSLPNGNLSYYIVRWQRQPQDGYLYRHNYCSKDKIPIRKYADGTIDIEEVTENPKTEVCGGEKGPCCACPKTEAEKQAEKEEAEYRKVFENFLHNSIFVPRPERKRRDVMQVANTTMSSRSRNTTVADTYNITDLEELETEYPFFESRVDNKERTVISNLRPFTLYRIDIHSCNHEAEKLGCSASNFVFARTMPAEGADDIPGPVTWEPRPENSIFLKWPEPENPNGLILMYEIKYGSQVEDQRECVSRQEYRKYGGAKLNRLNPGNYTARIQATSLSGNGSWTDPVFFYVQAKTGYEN

[6] = target: T2, rat IGF1R ectodomain (aa31-936) (Rattus norvegicus, UniProt P24062); experiment: SPR; Biacore 3000, multi-cycle kinetics; IGF1R ectodomains amine coupled on CM5 chips (about 1500-2000 RU); VHHs in flow at 20 µL/min, 300 s association, 300 s dissociation; 0.25-10 nM (IGF1R5), 1-25 nM (IGF1R5-H2); HBS-EP pH 7.4, 25 °C; 1:1 binding model; details: both partners purified
T2 construct: insulin-like growth factor-1 receptor, rat, ectodomain, aa31-936; source: NRC Montreal
T2 sequence (P24062 31-936): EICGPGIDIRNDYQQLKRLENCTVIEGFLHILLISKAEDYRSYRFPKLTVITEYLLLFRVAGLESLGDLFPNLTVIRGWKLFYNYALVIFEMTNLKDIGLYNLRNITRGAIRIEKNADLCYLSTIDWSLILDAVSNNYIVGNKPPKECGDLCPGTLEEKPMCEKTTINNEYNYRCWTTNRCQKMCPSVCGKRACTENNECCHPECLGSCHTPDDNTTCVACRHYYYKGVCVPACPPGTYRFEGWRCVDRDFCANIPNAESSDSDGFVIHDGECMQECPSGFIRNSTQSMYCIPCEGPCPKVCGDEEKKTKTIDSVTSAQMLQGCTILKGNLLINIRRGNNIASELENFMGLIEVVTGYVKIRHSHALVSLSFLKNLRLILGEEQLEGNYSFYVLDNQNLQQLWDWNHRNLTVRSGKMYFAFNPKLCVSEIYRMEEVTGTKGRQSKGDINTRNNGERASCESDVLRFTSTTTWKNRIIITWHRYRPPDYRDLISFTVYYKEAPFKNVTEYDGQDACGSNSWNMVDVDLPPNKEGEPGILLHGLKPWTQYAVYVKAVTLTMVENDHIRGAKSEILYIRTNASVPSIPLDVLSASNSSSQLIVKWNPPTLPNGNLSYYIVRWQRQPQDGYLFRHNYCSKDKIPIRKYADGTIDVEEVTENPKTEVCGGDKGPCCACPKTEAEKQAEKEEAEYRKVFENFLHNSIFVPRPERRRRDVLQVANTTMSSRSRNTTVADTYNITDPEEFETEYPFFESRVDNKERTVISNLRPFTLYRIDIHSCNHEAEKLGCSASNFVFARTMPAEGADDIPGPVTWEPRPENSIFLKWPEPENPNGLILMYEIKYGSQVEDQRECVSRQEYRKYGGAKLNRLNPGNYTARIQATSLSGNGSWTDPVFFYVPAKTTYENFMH

Sequence of Human IGF1R ectodomain (P08069 741-935): as the sequence (Q60751 742-936) above, with V19A, F31L, P185Q, T189G, M194I counted along it

Row | Binder | Kd (Human IGF1R ectodomain [1]) [nM] | koff (Human IGF1R ectodomain [1]) [s⁻¹] | kon (Human IGF1R ectodomain [1]) [M⁻¹ s⁻¹] | Kd [2] [nM] | koff [2] [s⁻¹] | kon [2] [M⁻¹ s⁻¹] | Kd (Human IGF1R ectodomain [3]) [nM] | koff (Human IGF1R ectodomain [3]) [s⁻¹] | kon (Human IGF1R ectodomain [3]) [M⁻¹ s⁻¹] | Kd [4] [nM] | koff [4] [s⁻¹] | kon [4] [M⁻¹ s⁻¹] | Kd [5] [nM] | koff [5] [s⁻¹] | kon [5] [M⁻¹ s⁻¹] | Kd [6] [nM] | koff [6] [s⁻¹] | kon [6] [M⁻¹ s⁻¹]
1 | IGF1R5-H2, humanized variant of the IGF1R5 single-domain antibody (VHH, CDRs of m1 grafted on a human VH3 germline framework, 4 back-mutations in the Vernier zone, no camelizing back-mutations in FR2, CDR2 point mutation A57T; Kabat numbering; Changes are stated against the camelid IGF1R5; also called humanized IGF1R5-H2; source: produced and purified as described for the llama sdAbs (TG1 Escherichia coli, HiTrap Chelating HP; preparative SEC just before SPR)) VHH: QVQLVESGGGLVQPGGSLRLSCAASGRTIDNYAMAWVRQAPGKGLEWVATIDWGDGGTRYANSVKGRFTISRDNSKNTMYLQMNSLRAEDTAVYYCAMARQSRVNLDVARYDYWGQGTLVTVSS | 160 | 0.034 | 210000 | 150 | 0.043 | 290000 | 7.6 | 0.0029 | 380000 | 9.1 | 0.0021 | 230000 | 17 | 0.0038 | 230000 | 11 | 0.0026 | 230000
2 | IGF1R5 single-domain antibody (camelid VHH against insulin-like growth factor-1 receptor) (VHH, Monomeric VHH fraction isolated by SEC was used for SPR; Isolated from a phage display library of a llama immunized with the extracellular domain of human IGF1R (933 amino acids); also called wild-type IGF1R5; IGF1R5 sdAb; source: TG1 Escherichia coli, purified (HiTrap Chelating HP; preparative SEC on Superdex S75 Increase just before SPR)) VHH: QVKLEESGGGLVQAGGSLRLSCAASGRTIDNYAMAWSRQAPGKDREFVATIDWGDGGARYANSVKGRFTISRDNAKGTMYLQMNNLEPEDTAVYSCAMARQSRVNLDVARYDYWGQGTQVTVSS | 4 | 0.0028 | 690000 | 4.8 | 0.0028 | 590000 | 0.64 | 0.00034 | 530000 | 1.1 | 0.0003 | 260000 | 0.4 | 0.00059 | 1.5e+06 | 1.1 | 0.00038 | 340000
